Results from patent US20050227289A1 (published 2005).
Residue numbers refer to the chain shown, from its start.

T1: human erythropoietin receptor (EpoR) on UT-7/Epo cells (human, UniProt P19235 25-508)
T1 sequence (looked up): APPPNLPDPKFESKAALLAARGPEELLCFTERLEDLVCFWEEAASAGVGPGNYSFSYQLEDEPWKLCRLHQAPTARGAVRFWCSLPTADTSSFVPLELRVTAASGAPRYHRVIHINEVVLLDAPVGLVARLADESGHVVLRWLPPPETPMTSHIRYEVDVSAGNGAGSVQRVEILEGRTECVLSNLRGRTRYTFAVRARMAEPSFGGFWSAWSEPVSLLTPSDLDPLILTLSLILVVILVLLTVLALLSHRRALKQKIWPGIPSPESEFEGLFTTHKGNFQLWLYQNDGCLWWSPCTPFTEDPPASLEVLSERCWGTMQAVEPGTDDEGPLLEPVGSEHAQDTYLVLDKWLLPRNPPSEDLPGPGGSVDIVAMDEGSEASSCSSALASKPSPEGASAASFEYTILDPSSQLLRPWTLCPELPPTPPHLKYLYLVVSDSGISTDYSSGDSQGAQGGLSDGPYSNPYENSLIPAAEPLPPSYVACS

T2: soluble EpoR (EposR), soluble recombinant human erythropoietin receptor (human) (UniProt P19235)
T2 sequence (looked up): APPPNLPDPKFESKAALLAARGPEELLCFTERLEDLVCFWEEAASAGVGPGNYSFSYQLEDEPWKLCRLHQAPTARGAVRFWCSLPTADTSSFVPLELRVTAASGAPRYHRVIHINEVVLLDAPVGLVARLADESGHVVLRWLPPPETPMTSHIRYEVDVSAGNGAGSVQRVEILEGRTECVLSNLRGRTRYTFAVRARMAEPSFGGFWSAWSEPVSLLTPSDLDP

T3: soluble EpoR (EposR), soluble recombinant human erythropoietin receptor (human, UniProt P19235 25-250, limits assumed)
T3 construct: Called only 'soluble EpoR (EposR)'
T3 sequence (looked up): T2 sequence (looked up)

B1: Ab12 IgG2/K (antibody, V domains shown)
VH: QVQLQESGPGLVKPSETLSLTCTVSGASISSYYWSWIRQPPGKGLEWIGYIYYSGSTNYNPSLKSRVTISVDTSKNQFSLKLRSVTAADTAVYYCARERLGIGDYWGQGTLVTVSS
VL: DIQLTQSPSSLSASVGDRVTITCRASQGIRNDLGWYQQKPGKAPKRLIYAASSLQSGVPSRFSGSGSGTEFTLTISSLQPEDFATYYCLQHNTYPPTFGQGTKVEIK
B2: Ab12.118 (antibody, IgG2, V domains shown)
VH: B1 VH with Y52G
VL: B1 VL
B3: Ab12.121 (antibody, IgG2, V domains shown)
VH: B1 VH with Y52G, Y53G
VL: B1 VL
B4: Ab12.6 (antibody, V domains shown)
VH: B1 VH with Y52G, Y53G, S54E
VL: B1 VL
B5: Ab12.120 (antibody, IgG2, V domains shown)
VH: B1 VH with S54E
VL: B1 VL
B6: Ab12.122 (antibody, IgG2, V domains shown)
VH: B1 VH with Y53G, S54E
VL: B1 VL
B7: Ab12.56 (antibody, V domains shown)
VH: B1 VH with Y52A, Y53G, S54T
VL: B1 VL
B8: Ab12.123 (antibody, IgG2, V domains shown)
VH: B1 VH with Y52G, S54E
VL: B1 VL
B9: Ab12.119 (antibody, IgG2, V domains shown)
VH: B1 VH with Y53G
VL: B1 VL
B10: Ab12 41/WT (scFv, part only; not given: display fusion parts and tags, part only)
scFv fusion displayed on yeast, part: GENKVEYAPALMALSQVQLQESGPGLVKPSETLSLTCTVSGASISSYYWSWIRQPPGKGLEWIGYIYYSGSTNYNPSLKSRVTISVDTSKNQFSLKLRSVTAADTAVYYCARERLGIGDYWGQGTLVTVSSGGGGSGGGGSGGGGSDIQLTQSPSSLSASVGDRVTITCRASQGIRNDLGWYQQKPGKAPKRLIYAASSLQSGVPSRFSGSGSGTEFTLTISSLQPEDFATYYCLQHNTYPPTFGQGTKVEIK
B11: Ab12 WT/WT (scFv)
scFv: QVQLQESGPGLVKPSETLSLTCTVSGASISSYYWSWIRQPPGKGLEWIGYIYYSGSTNYNPSLKSRVTISVDTSKNQFSLKLRSVTAADTAVYYCARERLGIGDYWGQGTLVTVSSGGGGSGGGGSGGGGSDIQLTQSPSSLSASVGDRVTITCRASQGIRNDLGWYQQKPGKAPKRLIYAASSLQSGVPSRFSGSGSGTEFTLTISSLQPEDFATYYCLQHNTYPPTFGQGTKVEIK
notes: not shown: Aga2/Xpress display part of pYD1 before the tether, and the C-terminal V5 and His tags
B12: Ab12 41/34 (scFv)
scFv: QVQLQESGPGLVKPSETLSLTCTVSGASISSYYWSWIRQPPGKGLEWIGYIYYSGSTNYNPSLKSRVTISVDTSKNQFSLKLRSVTAADTAVYYCARERLGIGDYWGQGTLVTVSSGHEAAAVMQVQYPASDIQLTQSPSSLSASVGDRVTITCRASQGIRNDLGWYQQKPGKAPKRLIYAASSLQSGVPSRFSGSGSGTEFTLTISSLQPEDFATYYCLQHNTYPPTFGQGTKVEIK
notes: as for B11

These binders were tested against T1, human erythropoietin receptor (EpoR) on … (assay: cell-based or functional assay).

Emax (cell proliferation, absorbance) | Binder
1.98 absorbance | B1
2.65 absorbance | B2
2.3 absorbance | B3
2.81 absorbance | B4
2 absorbance | B5
2.4 absorbance | B6
2.51 absorbance | B7
2.7 absorbance | B8
2.53 absorbance | B9

The binders below were run against T2, soluble EpoR (EposR), soluble recombinant human erythropoietin receptor (human) (assay: equilibrium titration of soluble EpoR on yeast-displayed scFv at 37 C, flow cytometry, detection with MAB307 + anti-mouse RPE).

EC50 (read off the curve) | Kd | Binder
6 nM | 5 nM | B10

The binders below were run against T3, soluble EpoR (EposR), soluble … in the same assay as above.
Source text: FIG. 2 is a graph showing equilibrium binding of soluble EpoR with various Ab12 scFv constructs expressed on the surface of yeast cells. In FIG. 2, -▪- represents an Ab12 scFv construct comprising a Gly/Ser linker (WT), […] (SEQ ID NO:1) in both the tether and scFv linker positions, -●- represents an […] comprising linker 41, GENKVEYAPALMALS (SEQ ID NO:2) in the tether position and the Gly/Ser linker (WT) (SEQ ID NO:1) in the scFv linker position, -▴- represents an Ab12 scFv construct comprising linker 41 (SEQ ID NO:2) in the tether position and linker 40, […] (SEQ ID NO:3) in the scFv linker position, and -▾- represents an Ab12 scFv construct comprising linker 41 (SEQ ID NO:2) in the tether position and linker 34, […] (SEQ ID NO:4) in the scFv linker position.
Various single stranded oligonucleotides encoding Ab12 scFvs were co-transformed with a linearized “gapped” vector derived from pYD1 (Invitrogen, Carlsbad, Calif.) into yeast by techniques well known to practitioners in the art. Cell surface protein expression was compared by incubating the transformed yeast with increasing concentrations of soluble EpoR (EposR) at 37° C. (FIG. 2). Bound antigen was detected using a monoclonal antibody to EpoR, MAB307 obtained commercially from R and D Systems (Minneapolis, Minn.) followed by anti-mouse phycoerythrin (PE, Southern Biotech, Birmingham, Ala.). […]

Kd | Binder
9 nM | B11
8.5 nM | B12
